Source: patent US20250215072A1 (published 2025)

Columns and labels:
[1] = target: T1, murine GARP-proTGFβ1 complex (mouse, UniProt P04202 30-390; G3XA59 18-628); assay: BLI screen of library antibodies
T1 construct: Soluble murine complex; also called mGARP-proTGFβ1

[2] = target: hLTBP3-proTGFβ1 as produced in the cell-based activation assay (human, UniProt P01137 30-390; Q9NS15 44-1303); assay: cell-based or functional assay
[3] = target: hLTBP1-proTGFβ1 as produced in the cell-based activation assay (human, UniProt P01137 30-390; Q14766 347-1721); assay: cell-based or functional assay
[4] = target: hLRRC33-proTGFβ1 presented on cells (human, UniProt P01137 30-390; Q86YC3 19-692); assay: cell-based or functional assay
[5] = target: hGARP-proTGFβ1 presented on cells (human, UniProt P01137 30-390; Q14392 20-662); assay: cell-based or functional assay
[6] = target: T2, human GARP-proTGFβ1 complex (human, UniProt P01137 30-390; Q14392 20-627); assay: MSD-SET, hIgG4
T2 construct: also called hGARP-proTGFβ1; hGARP
Procedure: (§1) MSD-SET assays were performed to measure affinities of the antibodies at equilibrium. Briefly, each test antibody was diluted 3-5 fold and samples were mixed with biotinylated antigen in a 48-well dish. The SET samples were equilibrated for 20-24 hours at room temperature. Meanwhile, a capture plate was coated with IgG (20 nM) and incubated overnight at 4° C. or 30 minutes at room temperature, followed by a blocking step with 5% BSA. After the capture plate was washed three times, SET samples were added and incubated for 150 seconds. The plate was washed once to remove unbound complexes. 250 ng/ml SA-Sulfotag was added then washed 3 times. 2× Read Buffer was added, and signals from the labeled bound complexes were read with the use of QuickPlex™ SQ 120 instrument.

[7] = target: T3, human LRRC33-proTGFβ1 complex (human, UniProt P01137 30-390; Q86YC3 19-650); assay: MSD-SET, hIgG4
T3 construct: also called hLRRC33-proTGFβ1; hLRRC33
Procedure: as §1

T1 sequence (P04202 30-390, chain 1 of 2): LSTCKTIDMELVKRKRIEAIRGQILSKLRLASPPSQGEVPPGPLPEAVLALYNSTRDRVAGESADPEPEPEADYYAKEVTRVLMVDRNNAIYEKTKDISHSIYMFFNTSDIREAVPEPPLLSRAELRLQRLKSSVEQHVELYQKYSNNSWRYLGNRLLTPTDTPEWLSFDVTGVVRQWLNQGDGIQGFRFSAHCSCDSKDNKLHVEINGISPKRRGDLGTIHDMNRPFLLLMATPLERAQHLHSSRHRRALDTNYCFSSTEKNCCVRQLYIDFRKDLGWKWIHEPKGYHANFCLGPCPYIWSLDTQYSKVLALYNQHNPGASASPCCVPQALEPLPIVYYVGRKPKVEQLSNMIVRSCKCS
T1 sequence (G3XA59 18-628, chain 2 of 2): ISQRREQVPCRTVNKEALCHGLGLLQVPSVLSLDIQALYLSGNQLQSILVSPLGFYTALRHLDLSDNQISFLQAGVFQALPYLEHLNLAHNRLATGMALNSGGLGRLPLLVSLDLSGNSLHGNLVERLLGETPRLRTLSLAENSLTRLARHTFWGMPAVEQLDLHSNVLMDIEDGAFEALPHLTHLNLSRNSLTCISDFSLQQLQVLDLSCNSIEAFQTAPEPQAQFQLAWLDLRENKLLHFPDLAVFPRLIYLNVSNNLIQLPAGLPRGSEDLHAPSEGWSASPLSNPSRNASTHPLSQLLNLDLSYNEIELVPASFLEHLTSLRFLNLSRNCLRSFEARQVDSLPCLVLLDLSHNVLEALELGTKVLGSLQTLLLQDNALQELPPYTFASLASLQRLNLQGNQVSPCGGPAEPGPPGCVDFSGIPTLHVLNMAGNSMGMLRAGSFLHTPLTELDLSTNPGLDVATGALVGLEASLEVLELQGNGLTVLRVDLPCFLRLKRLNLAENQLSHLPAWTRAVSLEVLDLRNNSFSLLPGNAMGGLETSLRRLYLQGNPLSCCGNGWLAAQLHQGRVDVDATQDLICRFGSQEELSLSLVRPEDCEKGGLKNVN
T2 sequence (P01137 30-390, chain 1 of 2): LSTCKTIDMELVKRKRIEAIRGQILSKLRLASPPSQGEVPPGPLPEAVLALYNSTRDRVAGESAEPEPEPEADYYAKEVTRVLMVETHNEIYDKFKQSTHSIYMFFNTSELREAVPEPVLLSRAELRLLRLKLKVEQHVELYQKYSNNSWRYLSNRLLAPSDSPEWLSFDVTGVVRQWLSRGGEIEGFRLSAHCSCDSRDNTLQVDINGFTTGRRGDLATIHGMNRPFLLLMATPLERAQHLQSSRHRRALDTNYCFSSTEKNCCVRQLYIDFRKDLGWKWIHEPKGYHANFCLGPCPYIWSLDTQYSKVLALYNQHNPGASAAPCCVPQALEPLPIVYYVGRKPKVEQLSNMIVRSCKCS
T2 sequence (Q14392 20-627, chain 2 of 2): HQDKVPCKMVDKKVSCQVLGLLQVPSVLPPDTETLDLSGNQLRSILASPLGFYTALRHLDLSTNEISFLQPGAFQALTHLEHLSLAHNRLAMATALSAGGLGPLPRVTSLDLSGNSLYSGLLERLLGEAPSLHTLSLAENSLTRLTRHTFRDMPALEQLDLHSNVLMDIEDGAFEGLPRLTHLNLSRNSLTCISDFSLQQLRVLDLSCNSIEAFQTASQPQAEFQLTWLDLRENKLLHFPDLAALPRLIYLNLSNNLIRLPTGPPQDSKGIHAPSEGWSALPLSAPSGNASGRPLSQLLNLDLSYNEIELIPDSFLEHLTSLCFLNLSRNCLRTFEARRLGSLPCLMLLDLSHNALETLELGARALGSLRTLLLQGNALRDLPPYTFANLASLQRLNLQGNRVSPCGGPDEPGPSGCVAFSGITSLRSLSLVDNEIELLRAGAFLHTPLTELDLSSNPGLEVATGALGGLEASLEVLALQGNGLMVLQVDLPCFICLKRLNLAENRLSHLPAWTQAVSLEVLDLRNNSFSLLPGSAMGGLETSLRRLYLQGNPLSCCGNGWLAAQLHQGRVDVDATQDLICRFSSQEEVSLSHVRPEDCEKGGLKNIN
Sequence of hGARP-proTGFβ1 presented on cells (P01137 30-390 limits assumed, chain 1 of 2): as the sequence (P01137 30-390, chain 1 of 2) above
Sequence of hGARP-proTGFβ1 presented on cells (Q14392 20-662 limits assumed, chain 2 of 2): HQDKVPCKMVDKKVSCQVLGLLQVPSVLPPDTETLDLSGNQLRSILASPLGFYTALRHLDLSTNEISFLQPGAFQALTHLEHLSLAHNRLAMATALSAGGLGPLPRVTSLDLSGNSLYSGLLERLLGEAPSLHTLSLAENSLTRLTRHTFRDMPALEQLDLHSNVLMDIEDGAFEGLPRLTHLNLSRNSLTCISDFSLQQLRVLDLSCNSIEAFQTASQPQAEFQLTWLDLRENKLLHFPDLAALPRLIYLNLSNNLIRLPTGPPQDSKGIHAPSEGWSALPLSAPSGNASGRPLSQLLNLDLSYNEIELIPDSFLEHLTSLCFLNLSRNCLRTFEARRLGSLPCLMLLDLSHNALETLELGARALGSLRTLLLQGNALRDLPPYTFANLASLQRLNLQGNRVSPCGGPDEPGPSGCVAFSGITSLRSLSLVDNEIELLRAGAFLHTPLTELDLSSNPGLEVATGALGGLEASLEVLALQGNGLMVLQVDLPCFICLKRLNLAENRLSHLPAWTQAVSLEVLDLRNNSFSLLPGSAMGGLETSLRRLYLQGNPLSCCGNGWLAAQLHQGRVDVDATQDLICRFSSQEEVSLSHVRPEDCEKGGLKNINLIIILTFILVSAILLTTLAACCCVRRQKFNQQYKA
Sequence of hLTBP3-proTGFβ1 as produced in the cell-based activation assay (P01137 30-390 limits assumed, chain 1 of 2): as the sequence (P01137 30-390, chain 1 of 2) above
Sequence of hLTBP3-proTGFβ1 as produced in the cell-based activation assay (Q9NS15 44-1303 limits assumed, chain 2 of 2): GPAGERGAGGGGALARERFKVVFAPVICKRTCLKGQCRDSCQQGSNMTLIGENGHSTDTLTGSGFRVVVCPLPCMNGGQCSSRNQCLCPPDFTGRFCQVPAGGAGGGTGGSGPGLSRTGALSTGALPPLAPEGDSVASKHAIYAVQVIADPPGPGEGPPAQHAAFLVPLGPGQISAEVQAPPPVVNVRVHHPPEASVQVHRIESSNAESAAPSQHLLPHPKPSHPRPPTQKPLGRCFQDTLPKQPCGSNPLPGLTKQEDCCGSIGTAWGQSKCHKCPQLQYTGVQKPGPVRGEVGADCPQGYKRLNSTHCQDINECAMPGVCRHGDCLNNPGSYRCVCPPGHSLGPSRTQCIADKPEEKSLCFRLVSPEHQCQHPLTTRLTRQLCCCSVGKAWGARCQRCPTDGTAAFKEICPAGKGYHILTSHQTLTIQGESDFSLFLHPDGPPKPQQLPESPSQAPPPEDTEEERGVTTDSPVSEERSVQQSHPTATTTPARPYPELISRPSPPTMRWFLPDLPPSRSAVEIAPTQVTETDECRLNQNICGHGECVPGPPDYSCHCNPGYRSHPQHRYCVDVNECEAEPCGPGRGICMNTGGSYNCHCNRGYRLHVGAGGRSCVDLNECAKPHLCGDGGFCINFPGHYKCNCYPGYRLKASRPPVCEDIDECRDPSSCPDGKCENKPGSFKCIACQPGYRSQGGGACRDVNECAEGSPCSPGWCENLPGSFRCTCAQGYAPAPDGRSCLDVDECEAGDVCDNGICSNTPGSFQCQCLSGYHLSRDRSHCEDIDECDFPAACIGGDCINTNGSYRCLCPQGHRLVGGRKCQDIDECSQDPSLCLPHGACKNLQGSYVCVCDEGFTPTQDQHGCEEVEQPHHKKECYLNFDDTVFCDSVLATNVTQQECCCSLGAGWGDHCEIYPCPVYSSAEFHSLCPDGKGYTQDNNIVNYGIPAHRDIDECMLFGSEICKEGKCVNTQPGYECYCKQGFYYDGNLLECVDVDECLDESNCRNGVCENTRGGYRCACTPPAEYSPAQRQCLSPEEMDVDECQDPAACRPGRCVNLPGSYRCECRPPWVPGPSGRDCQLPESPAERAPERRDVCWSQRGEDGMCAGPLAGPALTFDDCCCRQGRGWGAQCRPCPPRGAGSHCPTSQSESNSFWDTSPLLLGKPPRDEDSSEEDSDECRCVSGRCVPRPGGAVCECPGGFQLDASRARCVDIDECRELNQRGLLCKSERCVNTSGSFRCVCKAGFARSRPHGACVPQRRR
T3 sequence (P01137 30-390 limits assumed, chain 1 of 2): as the sequence (P01137 30-390, chain 1 of 2) above
T3 sequence (Q86YC3 other isoform, or with tags, fused parts or gaps limits assumed, chain 2 of 2): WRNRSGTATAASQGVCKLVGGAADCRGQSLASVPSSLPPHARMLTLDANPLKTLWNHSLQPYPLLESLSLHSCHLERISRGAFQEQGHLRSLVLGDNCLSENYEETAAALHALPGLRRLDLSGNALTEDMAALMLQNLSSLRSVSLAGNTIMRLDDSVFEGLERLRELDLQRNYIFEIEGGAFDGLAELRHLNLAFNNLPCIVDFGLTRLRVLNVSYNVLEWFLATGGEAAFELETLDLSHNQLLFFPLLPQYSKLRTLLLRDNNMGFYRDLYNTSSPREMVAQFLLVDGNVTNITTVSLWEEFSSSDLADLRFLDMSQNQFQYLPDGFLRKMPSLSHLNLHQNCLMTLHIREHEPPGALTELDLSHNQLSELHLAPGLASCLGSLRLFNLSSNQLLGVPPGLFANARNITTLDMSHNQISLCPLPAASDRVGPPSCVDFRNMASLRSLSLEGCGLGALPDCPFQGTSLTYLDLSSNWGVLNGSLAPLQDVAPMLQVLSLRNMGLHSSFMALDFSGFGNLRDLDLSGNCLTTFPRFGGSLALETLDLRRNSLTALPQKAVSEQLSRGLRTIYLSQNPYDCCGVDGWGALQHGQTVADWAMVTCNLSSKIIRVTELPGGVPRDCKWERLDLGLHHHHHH

binding result [1]: binds
IC50, reporter cell assay [2]: 5.65 nM
IC50, reporter cell assay [3]: 5.22 nM
IC50, reporter cell assay [4]: 3.5 nM
IC50, reporter cell assay [5]: 0.822 nM
Kd [6]: 2.5 nM
Kd [7]: 2.1 nM
B1: Ab4 (antibody, IgG4, V domains shown)
VH: EVQLVESGGGLVQPGGSLRLSCAASGFTFSSYSMNWVRQAPGKGLEWVSYISSSSSTIYYADSVKGRFTISRDNAKNSLYLQMNSLRAEDTAVYYCARGVLDYGDMLDPWGQGTLVTVSS
VL: DIQMTQSPSSLSASVGDRVTITCQASQDITNYLNWYQQKPGKAPKLLIYDASNLETGVPSRFSGSGSGTDFTFTISSLQPEDIATYYCQQADNHPPWTFGGGTKVEIK
notes: parent of Ab6
